The target of data set [1] is phenylpyruvate reductase from Lactobacillus sp. CGMCC 9967 (LaPPR) (Lactobacillus sp. CGMCC 9967). Description: crystal structure; apo-LaPPR wild type, sitting drop vapor diffusion, 20 °C, protein 28 mg/mL, 0.1 M citric acid pH 3.5, 14% w/v PEG 1000, 0.01 M beta-nicotinamide adenine dinucleotide; molecular replacement with PDB 3EVT.
Substrate in data set [2]: O=C(O)C(=O)Cc1ccc(O)c(O)c1
Description: purified protein. In kind it is biochemical, Lactobacillus sp. CGMCC 9967. To be noted: 2 mM NADH, Tris-HCl 50 mM pH 7.0, 30 °C.

The term stoichiometry N denotes a count of units in the complex or per binding partner. Usually Km stands for the substrate concentration at which the rate is half of its maximum. Broadly, the kcat is the maximal rate divided by the concentration of active sites. The kcat/Km is the turnover number divided by the Michaelis constant.

On to “phenylpyruvate reductase from Lactobacillus sp. CGMCC 9967 (LaPPR) (enzyme)”, for which the stoichiometry N in data set [1] is 2.

B1: LaPPR (Lactobacillus sp. CGMCC 9967) (protein)
chain: MMKILNSFSLKPEQRQTLEAAGHTVIDADKLDDATAQQIDVVYGWNAAATRVNFDRLQFVQAMSAGVDYLPLAELAKHHVLLANTSGIHAEPIAEYVLGALFTISRGILPAIRADRDMWTLRQERPPMTLLKGKTAVIFGTGHIGSTIATKLQALGLHTIGVSAHGRPAAGFDQVMTDVATHEAAGRADVVINALPLTPDTKHFYDEAFFAAASKQPLFINIGRGPSVDMAALTQALKNKQISAAALDVVDPEPLPQDSPLWGMTNVLLTPHISGTVPQLRDKVFKIFNDNLKTLISSGQLASHQVDLTRGY
notes: homodimer
As to B1, in data set [2], the Michaelis constant (Km) was found to be 6.20 ± 0.15 mM, the catalytic constant (kcat) is 1.21 ± 0.03 s⁻¹ and the catalytic efficiency (kcat/Km) worked out at 200 M⁻¹ s⁻¹.

B2: LaPPR (Lactobacillus sp. CGMCC 9967; H143D) (protein)
chain: MMKILNSFSLKPEQRQTLEAAGHTVIDADKLDDATAQQIDVVYGWNAAATRVNFDRLQFVQAMSAGVDYLPLAELAKHHVLLANTSGIHAEPIAEYVLGALFTISRGILPAIRADRDMWTLRQERPPMTLLKGKTAVIFGTGDIGSTIATKLQALGLHTIGVSAHGRPAAGFDQVMTDVATHEAAGRADVVINALPLTPDTKHFYDEAFFAAASKQPLFINIGRGPSVDMAALTQALKNKQISAAALDVVDPEPLPQDSPLWGMTNVLLTPHISGTVPQLRDKVFKIFNDNLKTLISSGQLASHQVDLTRGY
notes: homodimer
As for B2, in data set [2], the Michaelis constant (Km) was 5.03 ± 0.14 mM, the kcat was 2.08 ± 0.11 s⁻¹ and the kcat/Km came out at 410 M⁻¹ s⁻¹.

B3: LaPPR (Lactobacillus sp. CGMCC 9967; H89M) (protein)
chain: MMKILNSFSLKPEQRQTLEAAGHTVIDADKLDDATAQQIDVVYGWNAAATRVNFDRLQFVQAMSAGVDYLPLAELAKHHVLLANTSGIMAEPIAEYVLGALFTISRGILPAIRADRDMWTLRQERPPMTLLKGKTAVIFGTGHIGSTIATKLQALGLHTIGVSAHGRPAAGFDQVMTDVATHEAAGRADVVINALPLTPDTKHFYDEAFFAAASKQPLFINIGRGPSVDMAALTQALKNKQISAAALDVVDPEPLPQDSPLWGMTNVLLTPHISGTVPQLRDKVFKIFNDNLKTLISSGQLASHQVDLTRGY
notes: homodimer
As for B3, in data set [2], the Michaelis constant (Km) is 5.74 ± 0.08 mM, the kcat was determined as 1.37 ± 0.06 s⁻¹ and the kcat/Km stood at 240 M⁻¹ s⁻¹.

B4: LaPPR (Lactobacillus sp. CGMCC 9967; H143D/H89M/P256C) (protein)
chain: MMKILNSFSLKPEQRQTLEAAGHTVIDADKLDDATAQQIDVVYGWNAAATRVNFDRLQFVQAMSAGVDYLPLAELAKHHVLLANTSGIMAEPIAEYVLGALFTISRGILPAIRADRDMWTLRQERPPMTLLKGKTAVIFGTGDIGSTIATKLQALGLHTIGVSAHGRPAAGFDQVMTDVATHEAAGRADVVINALPLTPDTKHFYDEAFFAAASKQPLFINIGRGPSVDMAALTQALKNKQISAAALDVVDPEPLCQDSPLWGMTNVLLTPHISGTVPQLRDKVFKIFNDNLKTLISSGQLASHQVDLTRGY
notes: homodimer
As for B4, in data set [2], the Km turned out to be 2.52 ± 0.27 mM, the kcat was 5.74 ± 0.24 s⁻¹ and the kcat/Km amounted to 2050 M⁻¹ s⁻¹.

B5: LaPPR (Lactobacillus sp. CGMCC 9967; H143D/H89M) (protein)
chain: MMKILNSFSLKPEQRQTLEAAGHTVIDADKLDDATAQQIDVVYGWNAAATRVNFDRLQFVQAMSAGVDYLPLAELAKHHVLLANTSGIMAEPIAEYVLGALFTISRGILPAIRADRDMWTLRQERPPMTLLKGKTAVIFGTGDIGSTIATKLQALGLHTIGVSAHGRPAAGFDQVMTDVATHEAAGRADVVINALPLTPDTKHFYDEAFFAAASKQPLFINIGRGPSVDMAALTQALKNKQISAAALDVVDPEPLPQDSPLWGMTNVLLTPHISGTVPQLRDKVFKIFNDNLKTLISSGQLASHQVDLTRGY
notes: homodimer
Regarding B5, in data set [2], the Km worked out at 3.63 ± 0.17 mM, the kcat is 2.35 ± 0.12 s⁻¹ and the kcat/Km is 650 M⁻¹ s⁻¹.

The values are drawn from paper PMC10992476, “Efficient production of salvianic acid A from L-dihydroxyphenylalanine through a tri-enzyme cascade” (Bioresources and Bioprocessing, 2023).
